The series can be described thus: yeast display, Sf9 membrane polyspecificity reagent, FACS + sequencing; frameworks hold sequencing errors. The method, boiled down:
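A nanobody's polyreactivity label depends on the gate it was sorted from. Yeast display cells were stained with 10% biotinylated, detergent-solubilized Sf9 membrane reagent for 1 hour at 4 °C, enriched on streptavidin microbeads and sorted by FACS. The low and high (top ~1%) gates were set on anti-HA fluorescence for expression and streptavidin fluorescence for reagent binding.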
For “QVQLEESGGGLVQAGGSLRLSCAASGSIFPRFYAIGWYRQAPGKERELVAAISWRDGSTFYADSVKGRFTISRDNAKNTVYLQMNSLKPEDTGVYYCAAATYRYGYGYWGQGTQVTVSS”, the “polyreactivity (PSR sort gate)” value is recorded as “high polyreactivity”.
On to “QVQLEESGGGLVQAGGSLRLSCAASGSIFRRYARGWYRQAPGKERELVAAISRSGSSTYADSVKGRFTISRDNAKNTVYLQMNSLKPEDTAVYYCAASYAFLYYGYDSWGQGTQVTVSS”, for which the “polyreactivity (PSR sort gate)” value is reported as “low polyreactivity”.
To “QVQLEESGGGLVQAGGSLRLSCAASGSIFSYNSMGWYRQAPGKDREFVATIDWRDGSTYYADSVKGRFTISRDNGKNTVYLQMNSMKPEDTAVYYCATDYIVVEDYYWGQGTQVTVSS” belongs “high polyreactivity”; to “QVQLEESGGGLVQAGGSLRLSCAASGSIFTVNAMGWYRQAPGKERELVAAISSGGSTHYADSVKGRFTISRDNAKNTVYLQMNSLKPEDTAVYFCNAAGAYPDRDNYWGQGTQVTVSS”, “low polyreactivity”.
The same measure for “QVQLEESGGGLVQAGGSLRLSCAASGSIIDYYAMGWYRQAPGKERELVADITVTGDGTYYADSVKGRFTISRDNAKNTVYLQMNSLKPEDTAVYYCAADFWLVSFQWDFEYDYWGQGTQVTVSS”: “low polyreactivity”; for “QVQLEESGGGLVQAGGSLRLSCAASGSILESNVMGWYRQAPGKERELVASISSSGDSTYADSVKGRFTISRDNAKNTVYLQMNSLKPEDTAVYYCAADRWYWTYALYYWGQGTQVTVSS”: “low polyreactivity”; for “QVQLEESGGGLVQAGGSLRLSCAASGSTFAGNAMGWYRQAPGKERELVAAISGSGGITYYADSVKGRFTISRDNAKNTVYLQMNSLKAEDTAVYYCNAYYWFSRYGYWGQGTQVNVSS”: “high polyreactivity”.
The same measure for “QVQLEESGGGLVQAGGSLRLSCAASGSTFAPNAMGWYRAAPGKEMELVASIRRGGSTHYADSVKGRFTISRDNAKNTVYFQMNSLQPEDTAVYYCAAEFRDVSSNGYDFLGQGTQVTVSS”: “low polyreactivity”; for “QVQLEESGGGLVQAGGSLRLSCAASGSTFDYYARGWYRPAPGKERELVAVISSGGSTYYADSVKGRFTISRDNAKNTVYLQMNSLKPEDTAVYYCAAETYYYVLPHWYKYKYGYWGQGTQVTVSS”: “low polyreactivity”; for “QVQLEESGGGLVQAGGSLRLSCAASGSTFGYNAMGWYRQAPGKERELVAAITSGGRTKYADSVKGRFTISRDNAKNTVYLQMNSLKPEDTAVYYCATDQSYRFLFYRAYDMDYWGQGTQVTVSS”: “high polyreactivity”.
With “QVQLEESGGGLVQAGGSLRLSCAASGSTFGYYAMGWYRQAPGKERELVAAISWSGTRTYYADSVKGRFTISRDNAKNTVYLQMNSLKPEDTAVYYCAAVYRGSYRGSYRFDDSHYDYSGQGTQVTVSS”, the “polyreactivity (PSR sort gate)” value is “high polyreactivity”.
With “QVQLEESGGGLVQAGGSLRLSCAASGSTFHLYAMGLYRQAPGKEREFVAAIRGRGGNTYADSVKGRFTISRDNAKNTVYLQMNSLKPEDTAVYYCAAPLLRDLRSQYYYIYWGQCTQVTVSS”, the “polyreactivity (PSR sort gate)” value was “low polyreactivity”.
Take “QVQLEESGGGLVQAGGSLRLSCAASGSTFNDYAMGRYRQAPGKERELVAAISSSGGITYYADSVKGRFTISRDNAKNTVYLQMNSLKPEDTEVYYCAASGRDWSWYDYWGQGTQVTVSS”: the “polyreactivity (PSR sort gate)” value was “low polyreactivity”.
To “QVQLEESGGGLVQAGGSLRLSCAASGSTFRRYTMGWYRQAPGKERELVAAITRGGSTYYADSVKGRFTISRDNAKNTVYLQMNSLKPEDTAVYYCAVKYFTAFRLRGDYWGQGTQVTVSS” belongs “high polyreactivity”.
Consider “QVQLEESGGGLVQAGGSLRLSCAASGSTFRYYVMGWYRPAPGKERYLVAAITSSGSTNYADSVKGRFTISRDNAKNTVYLQMNSLKPEDTAVYYCAAVYRDRSQKKRIFYYWGQGTQVTVSS”, for which the “polyreactivity (PSR sort gate)” value is on record as “high polyreactivity”.
To “QVQLEESGGGLVQAGGSLRLSCAASGSTFTAYAMGWYREAPGKEMELVAAINWSGGTTYYADSVKGRFTISRDNAKNTVYLQMNSLKPEDTAVYYCAVDGNFFGEVRPYDYWGQGTQVTVSS” belongs “low polyreactivity”; to “QVQLEESGGGLVQAGGSLRLSCAASGSTFWYYAMGWYRPAPGKERELVAALSRSTGSTYYADSVKGRFTISRDNAKNTVYLQMNSLKPEDTAVYYCAADSYDWWQYTTSVHFDYYWGQGTQVTVSS”, “low polyreactivity”; to “QVQLEESGGGLVQAGGSLRLSCAASGSTFYYNAMGWYRQAPGKEREFVARISRSGGSTYADSVKGRFTISRDNAKNTVYLQMNSLKPEDTGVYYCNADAYGTPEFTSYAVRYDYWGQGTQVTVSS”, “low polyreactivity”.
Regarding “QVQLEESGGGLVQAGGSLRLSCAASGSTIFGNTMGWYRQAPGKERELVATITRRGGSTYYADSVKGRFTISRDNAKNTVYLQMNSLKPEDTAVYYCAKRGPYTKYDYWGQGTQVTVSS”, the “polyreactivity (PSR sort gate)” value was “low polyreactivity”.
As for “QVQLEESGGGLVQAGGSLRLSCAASGSTIKTYATMGWYRQAHGKERELVAAITSGSSTNYADSVKGRFTISRDTAMNTDYLQMNSLKPEDTAVYYGAADDYYNWYLGEPGDYLGQGTQVTVSS”, the “polyreactivity (PSR sort gate)” value is “low polyreactivity”.
Consider “QVQLEESGGGLVQAGGSLRLSCAASGSTLTRNAMGWYRQAPGKERELVAAITSGGRTKYADSVKGRFTISRDNAKNTVYLQMNSLKPEDTAVYYCAKGGPPGQRGYDYWGQGTQVTVSS”, for which the “polyreactivity (PSR sort gate)” value is “high polyreactivity”.
To “QVQLEESGGGLVQAGGSLRLSCAASGSTYGNSAMAGYRQAPGKERELVAAINGGPNTYYADSVKGRFTISRDNAKKTVYLQMNSLKPEDTAVYYCAAEAQAIGFHWGVDGDSWGQGTQVTVSS” belongs “low polyreactivity”.
The same measure for “QVQLEESGGGLVQAGGSLRLSCAASGYIFRFYTMGWYRQAPGKERELVAAISSGGSTNYADSVKGRFTISRANAKNTVYLQMNSLKPEDTAVYYCAARFYSRYYWGQGTQVTVSS”: “low polyreactivity”; for “QVQLEESGGGLVQAGGSLRLSCAASGYISRQSAMGWYSQAPGKERELVAAITRGGAGTYYAASVKGRFTISRDNAKHTVYLQMNSLKPEDTAVYYCAKTWVSRDVEYDYWGQGTQVTVSS”: “low polyreactivity”; for “QVQLEESGGGLVQAGGSLRLSCAATGGTFRDNVMGWYRQAPGKERELVAAISRNGGSTYYADTVKGRFTISRDNAKNTVYLQMTSLKPEDTAVYYCAARHLSAGGYYWGQGTQVTVSS”: “high polyreactivity”.
For the sequence “QVQLEESGGGLVQAGGSLRLSCAATGSIFYSYAMGSNRQAPGKEMELVATISTGGSTDYADSVKGRYTISRDNAKNTVYLQMNSLKPEETAVYYCATSGPYWWLVYWGQGTQVTVSS”, the “polyreactivity (PSR sort gate)” value is listed as “low polyreactivity”.
The same measure for “QVQLEESGGGLVQAGGSLRLSCAAYGGIFKQYAMGWYRQAPGKETELVAAITWSGGSTYYADSVKGRFTISRDNAKTTVSLQMNSLKPEDTAVYYCAKDYVVFQYVDFQDDDYWGQGTQVSVSS”: “low polyreactivity”.
On to “QVQLEESGGGLVQAGGSLRLSCAAYGSIIPFYPMGWYRQAPWTERELVAAISDRGGSTYYADSVKGRFTISRDNAKYTVYLQMNSLKPEDTAVYYGAKGGEVSQGYTDEYDYWGQGTQVTVSS”, for which the “polyreactivity (PSR sort gate)” value is given as “low polyreactivity”.
The same measure for “QVQLEESGGGLVQAGGSLRLSCGASGFTFRGYAMGWYIQAPGKERELVAAISKRGGSTYYADSVKGRFTISRDNAKNTVYLQMNSLKPEDTAVYYGAAEDTVYWGGVYYWTVYYWGQGTQVNVSS”: “high polyreactivity”.
To “QVQLEESGGGLVQAGGSLRLSCPASGRTFSVYAIGSYRPAPGKERELLAGITSGGSTNYADSVKGRFTISRDNAKNTVYLQMISLKPEDTAVYYCAAANVYAGFGFVSIGDYWGQGTQVTVSS” belongs “low polyreactivity”.

(Values after the nanobody polyreactivity screen of Harvey et al. (2022).)
